Drawing on the supplement of paper PMC10567573, this text covers protein stability index for 97 variants.

The labels stand for the following.
B1: ZNF263 (parent)
chain: CSECGESFSRSSRLMSHQRTHTG
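Further: lentivirally expressed fusions sorted by FACS into six bins by GFP to DsRed ratio, PSI derived from sequencing read proportions per bin multiplied by bin number.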

In this data set the parent is B1. Description: protein stability index of a GFP-peptide fusion (GPS, HEK-293T) (PSI 1-6); higher = more stable. Particulars: c terminus: native.
In the case of CSEMGESFSRSSRLMSHQRTHTG [C4M], the protein stability index is 1.85.

As for CSEQGESFSRSSRLMSHQRTHTG [C4Q], the protein stability index was found to be 1.53.

Regarding CSERGESFSRSSRLMSHQRTHTG [C4R], the protein stability index worked out at 1.15.

In the case of CSEPGESFSRSSRLMSHQRTHTG [C4P], the protein stability index came to 1.51.

With CSETGESFSRSSRLMSHQRTHTG [C4T], the protein stability index came out at 1.56.

For CSEDGESFSRSSRLMSHQRTHTG [C4D], the protein stability index was found to be 2.31.

Turning to CSEEGESFSRSSRLMSHQRTHTG [C4E], the protein stability index was found to be 1.8.

In the case of CSEHGESFSRSSRLMSHQRTHTG [C4H], the protein stability index came out at 1.4.

As to CSEGGESFSRSSRLMSHQRTHTG [C4G], the protein stability index was 1.82.

In the case of CSELGESFSRSSRLMSHQRTHTG [C4L], the protein stability index is 1.81.

Consider CSEKGESFSRSSRLMSHQRTHTG [C4K], for which the protein stability index is 1.42.

Turning to CSEVGESFSRSSRLMSHQRTHTG [C4V], the protein stability index stood at 2.12.

With CSEIGESFSRSSRLMSHQRTHTG [C4I], the protein stability index was 1.74.

On to CSEAGESFSRSSRLMSHQRTHTG [C4A], for which the protein stability index amounted to 1.56.

As to CSEFGESFSRSSRLMSHQRTHTG [C4F], the protein stability index is 1.24.

Take CSENGESFSRSSRLMSHQRTHTG [C4N]: the protein stability index was 2.11.

On to CMECGESFSRSSRLMSHQRTHTG [S2M], for which the protein stability index was found to be 3.38.

In the case of CVECGESFSRSSRLMSHQRTHTG [S2V], the protein stability index was 3.85.

Turning to CKECGESFSRSSRLMSHQRTHTG [S2K], the protein stability index was 2.51.

CPECGESFSRSSRLMSHQRTHTG [S2P]: the protein stability index was determined as 4.06.

Turning to CFECGESFSRSSRLMSHQRTHTG [S2F], the protein stability index is 1.91.

CWECGESFSRSSRLMSHQRTHTG [S2W]: the protein stability index turned out to be 2.21.

For the variant CCECGESFSRSSRLMSHQRTHTG [S2C], the protein stability index turned out to be 1.79.

For CHECGESFSRSSRLMSHQRTHTG [S2H], the protein stability index worked out at 2.35.

Regarding CIECGESFSRSSRLMSHQRTHTG [S2I], the protein stability index came out at 2.77.

On to CAECGESFSRSSRLMSHQRTHTG [S2A], for which the protein stability index amounted to 2.4.

Consider CDECGESFSRSSRLMSHQRTHTG [S2D], for which the protein stability index turned out to be 2.99.

Take CLECGESFSRSSRLMSHQRTHTG [S2L]: the protein stability index turned out to be 2.67.

Take CEECGESFSRSSRLMSHQRTHTG [S2E]: the protein stability index came to 3.24.

Consider CYECGESFSRSSRLMSHQRTHTG [S2Y], for which the protein stability index came to 2.22.

As for CGECGESFSRSSRLMSHQRTHTG [S2G], the protein stability index stood at 2.86.

In the case of CQECGESFSRSSRLMSHQRTHTG [S2Q], the protein stability index is 2.84.

Consider CRECGESFSRSSRLMSHQRTHTG [S2R], for which the protein stability index was determined as 2.92.

For CNECGESFSRSSRLMSHQRTHTG [S2N], the protein stability index is 2.62.

In the case of CTECGESFSRSSRLMSHQRTHTG [S2T], the protein stability index stood at 2.54.

In the case of LSECGESFSRSSRLMSHQRTHTG [C1L], the protein stability index was 1.75.

For ESECGESFSRSSRLMSHQRTHTG [C1E], the protein stability index worked out at 3.15.

Regarding DSECGESFSRSSRLMSHQRTHTG [C1D], the protein stability index came out at 1.84.

With GSECGESFSRSSRLMSHQRTHTG [C1G], the protein stability index was found to be 2.36.

For RSECGESFSRSSRLMSHQRTHTG [C1R], the protein stability index was 2.32.

In the case of VSECGESFSRSSRLMSHQRTHTG [C1V], the protein stability index came out at 1.59.

Turning to TSECGESFSRSSRLMSHQRTHTG [C1T], the protein stability index was determined as 2.06.

Take ISECGESFSRSSRLMSHQRTHTG [C1I]: the protein stability index worked out at 2.1.

In the case of ASECGESFSRSSRLMSHQRTHTG [C1A], the protein stability index was found to be 2.23.

Consider WSECGESFSRSSRLMSHQRTHTG [C1W], for which the protein stability index came out at 1.56.

Turning to NSECGESFSRSSRLMSHQRTHTG [C1N], the protein stability index is 2.31.

Turning to MSECGESFSRSSRLMSHQRTHTG [C1M], the protein stability index worked out at 2.22.

Take PSECGESFSRSSRLMSHQRTHTG [C1P]: the protein stability index was 3.14.

On to SSECGESFSRSSRLMSHQRTHTG [C1S], for which the protein stability index worked out at 2.14.

As to KSECGESFSRSSRLMSHQRTHTG [C1K], the protein stability index came out at 2.05.

In the case of QSECGESFSRSSRLMSHQRTHTG [C1Q], the protein stability index worked out at 2.46.

Consider YSECGESFSRSSRLMSHQRTHTG [C1Y], for which the protein stability index amounted to 1.9.

Turning to FSECGESFSRSSRLMSHQRTHTG [C1F], the protein stability index is 1.49.

As for HSECGESFSRSSRLMSHQRTHTG [C1H], the protein stability index was 2.11.

As to CSECGESFERSSRLMSHQRTHTG [S9E], the protein stability index was 3.67.

On to CSECGESFVRSSRLMSHQRTHTG [S9V], for which the protein stability index is 2.42.

On to CSECGESFHRSSRLMSHQRTHTG [S9H], for which the protein stability index came out at 2.99.

As to CSECGESFDRSSRLMSHQRTHTG [S9D], the protein stability index came out at 4.09.

For CSECGESFCRSSRLMSHQRTHTG [S9C], the protein stability index stood at 2.35.

Consider CSECGESFRRSSRLMSHQRTHTG [S9R], for which the protein stability index is 2.37.

As to CSECGESFQRSSRLMSHQRTHTG [S9Q], the protein stability index was found to be 1.94.

As to CSECGESFTRSSRLMSHQRTHTG [S9T], the protein stability index was found to be 2.98.

For the variant CSECGESFNRSSRLMSHQRTHTG [S9N], the protein stability index is 2.67.

Turning to CSECGESFYRSSRLMSHQRTHTG [S9Y], the protein stability index amounted to 3.1.

For the variant CSECGESFLRSSRLMSHQRTHTG [S9L], the protein stability index was found to be 2.03.

Consider CSECGESFKRSSRLMSHQRTHTG [S9K], for which the protein stability index is 2.23.

As for CSECGESFARSSRLMSHQRTHTG [S9A], the protein stability index was found to be 2.54.

As for CSECGESFFRSSRLMSHQRTHTG [S9F], the protein stability index was found to be 2.58.

Turning to CSECGESFWRSSRLMSHQRTHTG [S9W], the protein stability index turned out to be 2.84.

For the variant CSECGESFPRSSRLMSHQRTHTG [S9P], the protein stability index stood at 1.74.

With CSECGESFIRSSRLMSHQRTHTG [S9I], the protein stability index amounted to 2.4.

As for CSECGESFMRSSRLMSHQRTHTG [S9M], the protein stability index came to 2.68.

As for CSECGESFGRSSRLMSHQRTHTG [S9G], the protein stability index was 2.23.

CSECGESYSRSSRLMSHQRTHTG [F8Y]: the protein stability index is 2.39.

For the variant CSECGESKSRSSRLMSHQRTHTG [F8K], the protein stability index was found to be 2.14.

For the variant CSECGESRSRSSRLMSHQRTHTG [F8R], the protein stability index worked out at 2.2.

For the variant CSECGESLSRSSRLMSHQRTHTG [F8L], the protein stability index stood at 1.37.

Take CSECGESGSRSSRLMSHQRTHTG [F8G]: the protein stability index was 2.58.

Turning to CSECGESWSRSSRLMSHQRTHTG [F8W], the protein stability index was 3.15.

Turning to CSECGESNSRSSRLMSHQRTHTG [F8N], the protein stability index was 1.92.

Take CSECGESDSRSSRLMSHQRTHTG [F8D]: the protein stability index was 2.63.

On to CSECGESMSRSSRLMSHQRTHTG [F8M], for which the protein stability index was 2.21.

On to CSECGESESRSSRLMSHQRTHTG [F8E], for which the protein stability index came out at 3.32.

For the variant CSECGESISRSSRLMSHQRTHTG [F8I], the protein stability index amounted to 1.21.

On to CSECGESSSRSSRLMSHQRTHTG [F8S], for which the protein stability index was determined as 2.11.

With CSECGESTSRSSRLMSHQRTHTG [F8T], the protein stability index was 2.04.

Take CSECGESCSRSSRLMSHQRTHTG [F8C]: the protein stability index is 2.

Regarding CSECGESHSRSSRLMSHQRTHTG [F8H], the protein stability index came out at 2.13.

With CSECGESASRSSRLMSHQRTHTG [F8A], the protein stability index came to 1.35.

With CSECGESQSRSSRLMSHQRTHTG [F8Q], the protein stability index came to 2.16.

In the case of CSECGESPSRSSRLMSHQRTHTG [F8P], the protein stability index was found to be 1.91.

As to CSECGESFSRNSRLMSHQRTHTG [S11N], the protein stability index was determined as 2.31.

In the case of CSECGESFSRGSRLMSHQRTHTG [S11G], the protein stability index is 3.13.

Regarding CSECGESFSRPSRLMSHQRTHTG [S11P], the protein stability index was found to be 4.22.

As to CSECGESFSRMSRLMSHQRTHTG [S11M], the protein stability index is 4.29.

With CSECGESFSRFSRLMSHQRTHTG [S11F], the protein stability index worked out at 3.14.

With CSECGESFSRASRLMSHQRTHTG [S11A], the protein stability index worked out at 4.04.
